The results in this text go back to patent publication US20250313636A1 (PARAGON THERAPEUTICS, published 2025).

For experiment [1], the target named is T1, α4β1 integrin expressed on cells (UniProt P13612 34-1032; P05556 21-798, limits assumed).
T1 construct: whole, on cells; also called α4β1 on Ramos cells; α4β1 on HuT-78 cells
Briefly: flow cytometry on Ramos cells. On the procedure: (§1) Antibody binding to α4β7 integrin or α4β1 integrin expressed on cells was determined using FACS and two cell lines. […] The second cell line was Ramos and is known to only express α4β1. Briefly, cells were cultured and harvested according to standard vendor instructions. Cells were stained with purified antibodies at concentrations of 0 nM, 0.0064 nM, 0.032 nM, 0.16 nM, 0.8 nM, 4 nM, 20 nM, and 100 nM and incubated at 4° C. for 1 hour. Cells were subsequently stained with an Alexa Fluor 488-conjugated goat anti-human IgG secondary antibody at a 1:1000 dilution. Cells were incubated 4° C. for 1 hour, protected from light. Cells were then washed and the MFI of cells in each well were recorded by FACS using a flow cytometer. Subsequent data were analyzed using GraphPad Prism. […] On the other hand, an anti-α4 antibody tested binds to both cell lines.

For experiment [2], the target named is T2, α4β7 integrin expressed on cells (UniProt P13612 34-1032; P26010 20-798, limits assumed).
T2 construct: whole, on cells; also called α4β7 integrin on RPMI-8866 cells; α4β7 on HuT-78 cells
T2 sequence (P13612 34-1032 limits assumed, chain 1 of 2): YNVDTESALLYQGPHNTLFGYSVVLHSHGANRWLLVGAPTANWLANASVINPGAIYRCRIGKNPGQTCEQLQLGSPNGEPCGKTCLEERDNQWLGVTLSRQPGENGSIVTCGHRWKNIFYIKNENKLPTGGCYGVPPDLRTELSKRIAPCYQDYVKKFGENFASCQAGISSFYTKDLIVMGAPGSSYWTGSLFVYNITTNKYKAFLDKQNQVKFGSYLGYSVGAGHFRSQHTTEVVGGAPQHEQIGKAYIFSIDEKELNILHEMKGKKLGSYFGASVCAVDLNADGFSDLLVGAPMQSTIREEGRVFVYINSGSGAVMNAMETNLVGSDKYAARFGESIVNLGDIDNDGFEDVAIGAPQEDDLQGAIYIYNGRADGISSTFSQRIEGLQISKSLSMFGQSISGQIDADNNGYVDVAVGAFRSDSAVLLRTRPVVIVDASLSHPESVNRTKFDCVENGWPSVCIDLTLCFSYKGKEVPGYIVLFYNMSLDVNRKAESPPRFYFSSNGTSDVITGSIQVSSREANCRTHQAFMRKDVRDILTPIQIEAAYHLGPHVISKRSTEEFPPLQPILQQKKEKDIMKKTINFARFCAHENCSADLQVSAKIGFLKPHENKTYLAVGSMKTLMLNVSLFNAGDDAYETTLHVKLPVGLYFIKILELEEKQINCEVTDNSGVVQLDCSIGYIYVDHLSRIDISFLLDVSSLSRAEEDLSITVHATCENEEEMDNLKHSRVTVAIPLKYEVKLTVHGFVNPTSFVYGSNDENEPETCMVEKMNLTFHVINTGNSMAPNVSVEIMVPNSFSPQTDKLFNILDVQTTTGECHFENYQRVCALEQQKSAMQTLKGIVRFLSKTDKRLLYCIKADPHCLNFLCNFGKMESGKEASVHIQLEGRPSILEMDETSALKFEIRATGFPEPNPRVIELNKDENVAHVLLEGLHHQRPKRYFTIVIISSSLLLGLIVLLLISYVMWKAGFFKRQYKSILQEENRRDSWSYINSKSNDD
T2 sequence (P26010 20-798 limits assumed, chain 2 of 2): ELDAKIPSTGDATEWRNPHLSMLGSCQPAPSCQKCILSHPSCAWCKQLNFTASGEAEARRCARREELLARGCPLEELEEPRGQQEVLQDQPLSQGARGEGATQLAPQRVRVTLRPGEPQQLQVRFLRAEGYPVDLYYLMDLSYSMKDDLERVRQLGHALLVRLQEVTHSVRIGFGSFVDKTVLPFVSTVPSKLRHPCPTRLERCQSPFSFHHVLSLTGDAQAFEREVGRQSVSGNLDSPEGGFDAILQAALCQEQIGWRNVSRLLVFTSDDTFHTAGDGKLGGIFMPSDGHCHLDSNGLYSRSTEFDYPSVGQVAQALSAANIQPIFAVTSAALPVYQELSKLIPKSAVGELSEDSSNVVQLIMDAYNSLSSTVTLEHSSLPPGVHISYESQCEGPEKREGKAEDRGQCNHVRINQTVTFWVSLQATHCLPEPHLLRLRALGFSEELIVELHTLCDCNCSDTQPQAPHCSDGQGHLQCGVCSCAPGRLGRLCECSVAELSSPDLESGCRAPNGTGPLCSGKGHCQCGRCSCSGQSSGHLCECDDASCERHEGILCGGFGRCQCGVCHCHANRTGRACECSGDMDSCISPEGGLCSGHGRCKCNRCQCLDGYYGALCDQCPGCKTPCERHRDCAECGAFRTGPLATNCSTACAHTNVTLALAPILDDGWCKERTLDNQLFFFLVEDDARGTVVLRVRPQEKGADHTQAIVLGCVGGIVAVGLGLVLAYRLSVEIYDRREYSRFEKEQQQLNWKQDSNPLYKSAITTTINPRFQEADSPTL
Briefly: flow cytometry on RPMI-8866 cells (α4β7 only). On the procedure: as §1
Background: Flow cytometry measures light scatter and fluorescence of single cells or particles in a stream.

For experiment [3], the target named is T3, recombinant human α4β7 integrin (human, UniProt P13612 34-977; P26010 20-723, limits assumed). Kind of experiment: SPR, antibody captured on anti-human Fc CM5 chip, recombinant human α4β7 integrin as analyte, 25 °C, 1:1 model. On the procedure: (§2) Following a stabilization period in running buffer, antibodies previously diluted to 1-1.5 μg/mL were captured on the chip for 30 seconds at a flow rate of 10 μL/min. Subsequently, recombinant human α4β7 integrin was prepared at concentrations of 1.563 nM, 3.125 nM, 6.25 nM, 12.5 nM, 25 nM, 50 nM and 100 nM and injected at a flow rate of 30 μL/min for 180 seconds followed by a dissociation phase with just running buffer at a flow rate of 30 μL/min for 1200 seconds. Samples were injected in a multi-cycle manner over freshly captured mAb, by regenerating the capture surfaces with injection of 10 mM Glycine, pH 1.5. The data was processed and analyzed with SPR analysis software, where sensorgrams were fit to a 1:1 binding model to determine the apparent association (ka) and dissociation rate constants (kd). Their ratio provided the apparent equilibrium dissociation constant or affinity constant (KD=kd/ka).
T3 sequence (P13612 34-977 limits assumed, chain 1 of 2): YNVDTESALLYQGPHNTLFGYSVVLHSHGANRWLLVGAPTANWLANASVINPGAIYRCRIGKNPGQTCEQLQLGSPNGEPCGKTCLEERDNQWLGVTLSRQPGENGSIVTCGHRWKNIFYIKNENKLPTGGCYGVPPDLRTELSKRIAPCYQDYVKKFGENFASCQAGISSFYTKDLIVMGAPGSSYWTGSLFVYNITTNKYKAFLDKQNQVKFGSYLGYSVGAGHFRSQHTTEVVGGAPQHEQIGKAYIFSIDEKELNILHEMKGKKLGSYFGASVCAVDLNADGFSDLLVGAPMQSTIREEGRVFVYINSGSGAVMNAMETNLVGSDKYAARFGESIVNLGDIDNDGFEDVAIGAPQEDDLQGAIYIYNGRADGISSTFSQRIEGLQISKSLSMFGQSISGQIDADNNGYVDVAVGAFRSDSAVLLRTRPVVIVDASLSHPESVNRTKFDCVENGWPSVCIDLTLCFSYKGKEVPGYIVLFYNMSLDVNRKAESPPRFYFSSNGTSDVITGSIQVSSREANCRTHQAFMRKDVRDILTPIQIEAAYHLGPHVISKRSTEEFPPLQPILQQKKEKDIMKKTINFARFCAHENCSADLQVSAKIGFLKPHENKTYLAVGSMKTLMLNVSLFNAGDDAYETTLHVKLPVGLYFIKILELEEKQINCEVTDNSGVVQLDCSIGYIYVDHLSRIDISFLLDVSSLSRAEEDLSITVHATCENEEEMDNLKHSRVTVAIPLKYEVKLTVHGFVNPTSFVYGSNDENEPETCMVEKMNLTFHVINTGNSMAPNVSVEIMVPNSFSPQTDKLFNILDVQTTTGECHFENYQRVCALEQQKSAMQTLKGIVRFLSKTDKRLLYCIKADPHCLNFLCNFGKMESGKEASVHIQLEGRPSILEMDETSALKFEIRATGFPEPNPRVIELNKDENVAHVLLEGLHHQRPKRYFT
T3 sequence (P26010 20-723 limits assumed, chain 2 of 2): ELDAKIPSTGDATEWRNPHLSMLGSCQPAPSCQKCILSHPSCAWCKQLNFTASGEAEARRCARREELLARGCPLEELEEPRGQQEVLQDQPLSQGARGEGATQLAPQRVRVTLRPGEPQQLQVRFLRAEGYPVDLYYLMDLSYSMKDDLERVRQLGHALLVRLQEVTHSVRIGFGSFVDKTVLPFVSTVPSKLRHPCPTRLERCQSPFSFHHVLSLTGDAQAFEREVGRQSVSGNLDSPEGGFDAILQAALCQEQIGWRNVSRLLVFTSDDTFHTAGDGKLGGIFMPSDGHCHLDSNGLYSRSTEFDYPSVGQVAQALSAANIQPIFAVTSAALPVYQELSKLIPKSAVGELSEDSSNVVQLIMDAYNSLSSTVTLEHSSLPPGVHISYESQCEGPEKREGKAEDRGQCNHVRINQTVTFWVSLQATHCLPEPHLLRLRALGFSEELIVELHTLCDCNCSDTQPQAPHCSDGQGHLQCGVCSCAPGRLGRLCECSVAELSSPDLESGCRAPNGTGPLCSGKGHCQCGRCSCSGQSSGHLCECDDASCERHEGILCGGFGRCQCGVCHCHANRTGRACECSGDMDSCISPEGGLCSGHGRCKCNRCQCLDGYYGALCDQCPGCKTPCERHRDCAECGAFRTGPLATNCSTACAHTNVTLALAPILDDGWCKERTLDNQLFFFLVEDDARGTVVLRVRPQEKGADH
For orientation: In SPR one partner is held on a chip, and binding of the other changes the refractive index at the surface.

In experiment [4] the target is T3, recombinant human α4β7 integrin. Kind of experiment: SPR, antibody captured on anti-human Fc CM5 chip, recombinant human α4β7 integrin as analyte, 25 °C, 1:1 model; apparent KD. On the procedure:
as §2

Experiment [5] addresses T2, α4β7 integrin expressed on cells. Briefly: cell-based or functional assay.

The term EC50 denotes the concentration giving half of the maximal effect. A higher EC50 goes with a less potent agent. The term koff denotes a measure of how fast the partners let go of each other. As usually defined, the kon is the rate constant with which the complex forms.

T1 sequence (P13612 34-1032 limits assumed, chain 1 of 2): as the sequence (P13612 34-1032 limits assumed, chain 1 of 2) above
T1 sequence (P05556 21-798 limits assumed, chain 2 of 2): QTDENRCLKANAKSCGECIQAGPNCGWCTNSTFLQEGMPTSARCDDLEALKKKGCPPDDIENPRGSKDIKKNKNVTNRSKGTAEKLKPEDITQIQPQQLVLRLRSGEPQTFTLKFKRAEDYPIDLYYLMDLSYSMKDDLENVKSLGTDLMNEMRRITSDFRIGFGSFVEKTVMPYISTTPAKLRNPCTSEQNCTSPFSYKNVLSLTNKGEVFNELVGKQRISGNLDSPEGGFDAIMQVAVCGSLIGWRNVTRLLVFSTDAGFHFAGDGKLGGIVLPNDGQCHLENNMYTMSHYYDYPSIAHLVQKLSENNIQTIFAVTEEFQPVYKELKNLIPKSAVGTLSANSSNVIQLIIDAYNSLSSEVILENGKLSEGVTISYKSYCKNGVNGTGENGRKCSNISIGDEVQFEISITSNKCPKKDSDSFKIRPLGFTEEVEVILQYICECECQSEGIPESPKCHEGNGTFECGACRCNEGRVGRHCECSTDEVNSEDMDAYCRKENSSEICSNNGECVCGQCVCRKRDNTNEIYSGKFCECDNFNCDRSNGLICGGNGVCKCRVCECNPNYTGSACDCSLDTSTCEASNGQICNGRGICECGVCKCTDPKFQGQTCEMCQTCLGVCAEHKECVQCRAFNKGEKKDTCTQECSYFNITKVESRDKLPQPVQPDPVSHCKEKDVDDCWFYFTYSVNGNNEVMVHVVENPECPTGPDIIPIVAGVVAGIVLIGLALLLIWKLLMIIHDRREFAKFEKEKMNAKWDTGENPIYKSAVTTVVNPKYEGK

B1: Antibody 1 (antibody, V domains shown)
VH: EVQLVQSGAEVKKPGSSVKVSCKASGGTFTSYWMHWVRQAPGQGLEWMGEIDPSESNTNYNQKFKGRATITADISTSTAYMELSSLRSEDTAVYYCARGGYDGWDYAIDYWGQGTLVTVSS
VL: DVVMTQTPLSLPVTPGQPASISCRSSQSLAKSYGNTYLSWYLQKPGQSPQLLIYGISNRFSGVPDRFSGSGSGTDFTLKISRVEAEDVGVYYCLQGTHQPYTFGQGTKLEIK
notes: It has a human Fc: captured by anti-human Fc in SPR, detected by anti-human IgG in FACS
As to B1, the binding result in experiment [1] is given as “no binding (tested: 100 nM (highest concentration tested))”. This molecule also registered an EC50 in experiment [2] of 200 pM. Also, in experiment [3], the koff was determined as 0.000466 s⁻¹ and the kon was 68500 M⁻¹ s⁻¹. For the same molecule, the Kd in experiment [4] was 6790 pM. Further, in experiment [5], the “MAdCAM-1 Adhesion Inhibition IC50” value came to 87 pM.

B2: Antibody 2 (antibody, V domains shown)
VH: EVQLVESGGGVVQPGRSLRLSCAASGYTFTSYWMHWVRQAPGKGLEWIGEIDPSESNTNYNQKFKGRATISVDNSKNTAYLQMSSLRAEDTAVYYCARGGYDGWDYAIDYWGQGTLVTVSS
VL: B1 VL
notes: as for B1
With B2, the binding result in experiment [1] was “no binding (tested: 100 nM (highest concentration tested))”. A half-maximal effect in experiment [2] (EC50) was put at 270 pM. In experiment [3], the koff worked out at 0.000118 s⁻¹ and the on-rate constant (kon) was determined as 56400 M⁻¹ s⁻¹. Besides, the Kd in experiment [4] is 2100 pM. In addition, the “MAdCAM-1 Adhesion Inhibition IC50” value in experiment [5] turned out to be 150 pM.
